Data taken from US20220073643A1 (NANJING GENSCRIPT BIOTECH, published 2022).

Target: human Claudin18.2 (human)
Experiment: cell-based or functional assay

| CDC % Relative activity [%] | CDC EC50 [µg/mL] | Binder |
| --- | --- | --- |
| 3.42 | 53.6 | 252C10F6 (antibody, V domains shown) VH: QVHLKQSGRGLVQPSQSLSITCTVSGFSLPNYGVHWVRQPPGKGLEWLGVIWSGGNTDYNTVFKARLSITKDNSKSQVFFKMNSLQADDTAIYYCARNLYGNYDYAMDYWGQGTSVTVSS VL: DIVMTQSPATLSVTPGDRVSLSCRASQSISDYLHWYQQKSHESPRLLIKYASQSISGIPSRFSGSGSGSEFTLSINSVEPEDVGVYYCQNGHSFPFTFGSGTKLEIK |
| 154 | 1.19 | 252E7C9 (antibody, V domains shown) VH: QTYLQQSGAELVRSGASVKMSCRTSGYSFTSHNMHWVKQTPGQGLEWIGYIYPGNGGSYYNQKFKGKAILTADTSSSTAYMQISSLTSEDSAVYFCTRDYYGNSFVYWGQGTLVTVSA VL: DVVMTQSPSSLTEKTGEKVSMSCKSSQSLLNSGNQKNYLTWYQQKPGQPPKLLIYWASTRESGVPDRFTGSGSGTDFTLTISSLQTEDLAIYYCQNNFRYPFTFGAGTKLELK |
| 44 | 3.59 | 181C7B2 (antibody, V domains shown) VH: QVQLKQSGPGLVQPSQSLSITCTVSGFSLTYYGVHWVRQSPGKGLEWLGVIWRGGNTDYNAAFISRLSINKDNSKSQVFFKMNSLQPNDTAIYYCARAAYYGNCFDYWGQGTTLTVSS VL: DIVMTQSPSSLTVTAGEKVTMSCKSSQSLLNSGNQKNYLTWYQQKPGQPPKLLIYWASTRESGVPDRFTGSGSGTDFTLTISSVQAEDLAVYYCQNNYIYPLTFGAGTKLELK |
| 165 | 1.11 | 256C3D3 (antibody, V domains shown) VH: QAYLQQSGAELVRSGASVKMSCKASGYAFTSHNMHWVKQTPGQGLEWIGYISPGNGYTNYNQKFRGKATLTADTSSSTAYMQIGSLTSEDSAVYFCTRDYYGNSFAYWGQGTLVTVSA VL: DIVMTQSPSSLTEKAGERVSMSCKSSQSLFNSGNQKNYLTWYQQKPGQPPKLLIYWASTRESGVPDRFTGSGSGTDFTLTISSVQAEDLAVYYCQNNYWFPFTFGAGTKLELK |
| 487 | 0.305 | 257B1G9 (antibody, V domains shown) VH: QAYLQQSGAELVRSGASVKMSCKASGYTFTSHNMHWVKQTPGQGLEWIGYIYPGNGGTNYNQKFKGKATLTADTSSSTAYMQISSLTSEDSAVYFCTRDYYGNSFAYWGQGTLVTVSA VL: DIVMTQSPSSLTERAGERVSMSCKSSQSLFNSGNQKNYLTWYQQKPGQPPKLLIYWASTRESGVPDRFTGSGSGTDFTLTISSVQAEDLAVYYCQNDYRYPFTFGAGTKLELK |
| 174 | 0.855 | 257F1E11 (antibody, V domains shown) VH: QAYLQQSGAELVRSGASVKMSCKASGYTFTSHNIHWVKQTPRQGLEWIGYIYPGNGGTNYNQKFKGKATLTADTSSSTAYMQISSLTSEDSAVYFCTRDYYGNSFAYWGQGTLVTVSA VL: DIVMTQSPSSLTEKAGERVSMSCKSSQSLFNSGNQKNYLTWYQQKPGQPPKLLIYWASTRESGVPDRFTGSGSGTDFTLTISSVQAEDLAIYYCQNDYWYPFTFGAGTKLELK |
| 147 | 1.01 | 257G7B9 (antibody, V domains shown) VH: QAYLQQSGAELVRSGASVKMSCKASGYTFTSHNLHWVKQTPGQGLEWIGYIYPGNGNTNYNQKFKGKATLTADTSSSTAYMQISSLTSEDSAVYFCTRDYYGNSFAYWGQGTLVTVSA VL: DIVMTQSPSSLTEKAGERVSMSCKSSQSLFNSGNQKNYLTWYQQKPGQPPKLLIYWASTRESGVPDRFTGSGSGTDFTLTISSVQAEDLAVYYCQNNYWFPFTFGAGTKLELK |
| 154 | 1.19 | 254A8D5 (antibody, V domains shown) VH: EVMLVESGGGLVKPGGSLKLSCAASGFTFSSYTVSWVRQTPEKRLEWVATSIVGSTYTYFPDSVKGRFTISRDFAKNTLFLQMSSLRSEDTAMYYCSRLGRGNAMDYWGQGTSVSVSS VL: DIVMTQSPSSLTVTAGEKVTLNCRSSQSLLNSGNQKNYLTWYQQKPGQPPKLLIYWASTRESGVPDRFTGSGSGTDFTLTISSVQADDLAVYYCQNGYSYPFTFGSGTKLEIK |
| 114 | 1.61 | 248G8E8 (antibody, V domains shown) VH: QVQLKESGPGLVAPSQSLSITCTVSGFSLTTYGVSWVRQPPGKGLEWLGVIWGDGSTNYHSTLISRLRISKDKSKSQVFLKLNSLQTDDTATYYCAKAGRGNALDYWGQGTSVTVSS VL: DIVLTQSPSSLTVTAGEKVTMSCKSSQSLLNSGNQKNYLTWYQQKPGQPPKLLIYWASTRESGVPDRFTGSGSGTDFTLTISSVQAEDLAVYYCQNDYSFPLTFGAGTKLELK |
| 104 | 1.76 | 252F1B10 (antibody, V domains shown) VH: QAYLQQSGAELVRSGASVKMSCKASGYTFTSHNMHWVKQTPGQGLEWIGYIYPGNGGTNYNQKFKGKATLTADTSSSTAYMQINSLTSEDSAVYFCTRDYYGNSFAYWGQGTLVTVSA VL: DIVMTQSPSSLTEKAGERVSMSCKSSQSLFNSGNQKNYLTWYQQKPGQPPKLLIYWASTRESGVPDRFTGSGSGTDFTLTISSVQAEDLAVYYCQNDYRYPFTFGAGTKLELK |
| 51.7 | 3.06 | 194A2F7 (antibody, V domains shown) VH: QIQLVQSGPELKKPGETVKISCKASGYTFTDYLIHWVKQAPGKGLKWMGWINTETGEPTYADDFKGRFALSLETSASTACLQINNLKNEDTATYFCARIYYGNSFDYWGQGTTLTVSS VL: DIVMTQSPSSLPVTAGEKVTMTCKSSQNLLNSGNQKSYLTWYQQKPGQPPKLLIYWASTRETGVPDRFTGSGSGTDFTLTISSVQAEDLAVYYCQNAYRFPFTFGAGTRLELK |
| 112 | 1.64 | 250F4G1 (antibody, V domains shown) VH: QAYLQQSGAELVRSGASVKMSCKASGYTFTSHNMHWVKQTPGQGLEWIGYIYPGNGRTNYNQKFKGKATLTADTSSSTAYMQISSLTSEDSAVYFCTRDYYGNSFAYWGQGTLVTVSA VL: DIVMTQSPSSLTEKVGERVSMSCKSSQSLFNSGNQKNYLTWYQQKPGQPPKLLIYWASTRESGVPDRFTGSGSGTDFTLTISSVQAEDLAVYYCQNDYWYPFTFGAGTKLELK |
| 114 | 1.39 | 186G12H3 (antibody, V domains shown) VH: EVMLVESGGGLVKPGGSLKLSCAASRFTLSSYAMSWVRQTPEKRLEWVATISSGGSYTYYFDSVKGRFTISRDTAKNTLNLQMSSLRSEDTAMYYCARLYYGNALDYWGQGTSVTVSS VL: DIVMTQSPSSLTVTAGEKVTVSCKSSQSLLNSGNQKNYLTWYQQKPGQPPKLLIYWASTRESGVPDRFTGSGSGTDFTLTISSVQAEDLAVYYCQNNYIYPLTFGAGTTLELK |
| 174 | 1.06 | 253E4F7 (antibody, V domains shown) VH: EIQLQQSGPELMKPGASVKMSCKASGYSFTSYYIHWVKQSHGKSLEWIGYIDPFNGGTRYNQKFEGKATLTVDKSSTTAYMHLSSLTSEDSTVYYCASLRFLAYWGQGTLVTVSA VL: DIVMTQSPSSLTVTAGEKVTMTCKSSQSLLNSGNQKNYLTWYQQKPGQPPKVLISRASTRQSGVPDRFTGSGSGTDFTLTISSVQAEDLAVYYCQNDYSYPLTFGAGTKLELK |
| 126 | 1.45 | 250F4G4 (antibody, V domains shown) VH: QAYLQQSGAELVRSGASVKMSCKASGYTFTSHNMHWVKQTPGQGLEWIGYIYPGNGRTNYNQKFKGKATLTADTSSSTAYMQISSLTSEDSAVYFCTRDYYGNSFAYWGQGTLVTVSA VL: DIVMTQSPSSLTEKVGERVSMSCKSSQSLFNSGNQKNYLTWYQQKPGQPPKLLIYWASTRESGVPDRFTGSGSGTDFTLTISSVQAEDLAVYYCQNDYWYPFTFGAGTKLELK |
